The source of these data is the DeepSol protein solubility set.

A short description of the series: soluble on expression in E. coli; label from the status in PepcDB or PDB records.
Take “SSSSVPNSDRKIVTGPAGYILEDVPHFSDDFPDHPTYPNPLQDNAAYSVVKQYFVDEDDTVPQKIVVHPDSPRGTHFRRAGPRQRVYFESDDVLACIVTCGGLCPGLNTVIREIVCGLSYMYGVKRILGIDGGYRGFYARNTIHLDLKTVNDIHRSGGTILGTSRGGHNTTKIVDSIQDRGINQVYIIGGDGSQKGAAAIFEEIRKRKLKVAVAGIPKTIDNDIPIIDRSFGFDTAVEEAQRAINAAHVEATSFENGIGLVKLMGRYSGFIAMHATLASRDVDCCLIPESPFFLEGSGGLFEFIDKRLKESGHMVIVIAEGAGQDLLSESMKESTTLKDASGNKLLQDIGLWISQRIKDHFAKKMTLTLKYIDPTYMIRAVPSNASDNVCCTLLAQSAVHGVMAGYNGFTVGLVNGRHTYIPFNRITEKQNKVVITDRMWARLLSSTNQPSFMKQADKIHSNQLVGEPGTMKW”: the “soluble on expression in E. coli” value was “soluble”.

For “SSTFSASDFNSERYSSSRPSYPSDFYKMIDEYHDGERKLLVDVGCGPGTATLQMAQELKPFEQIIGSDLSATMIKTAEVIKEGSPDTYKNVSFKISSSDDFKFLGADSVDKQKIDMITAVECAHWFDFEKFQRSAYANLRKDGTIAIWGYADPIFPDYPEFDDLMIEVPYGKQGLGPYWEQPGRSRLRNMLKDSHLDPELFHDIQVSYFCAEDVRDKVKLHQHTKKPLLIRKQVTLVEFADYVRTWSAYHQWKQDPKNKDKEDVADWFIKESLRRRPELSTNTKIEVVWNTFYKLGKRV”, the “soluble on expression in E. coli” value is “soluble”.

“SSTGTFVVSQPLNYRGGARVEPADASGTEKAFEPATGRVIATFTCSGEKEVNLAVQNAKAAFKIWSQKSGMERCRILLEAARIIREREDEIATMECINNGKSIFEARLDIDISWQCLEYYAGLAASMAGEHIQLPGGSFGYTRREPLGVCVGIGAWNYPFQIASWKSAPALACGNAMVFKPSPFTPVSALLLAEIYSEAGVPPGLFNVVQGGAATGQFLCQHPDVAKVSFTGSVPTGMKIMEMSAKGIKPVTL”: the “soluble on expression in E. coli” value was “soluble”.

In the case of “STAGKVIKCKAAVLWEEKKPFSIEEVEVAPPKAHEVRIKMVATGICRSDDHVVSGTLVTPLPVIAGHEAAGIVESIGEGVTTVRPGDKVIPLWTPQCGKCRVCKHPEGNFCLKNDLSMPRGTMQDGTSRFTCRGKPIHHFLGTSTFSQYTVVDEISVAKIDAASPLEKVCLIGCGFSTGYGSAVKVAKVTQGSTCAVFGLGGAGLSVIMGCKAAGAARIIGVDINKDKFAKAKEVGATECVNPQDYKKPIQEVLTEMSNGGVDFSFEVIGRLDTMVTALSCCQEAYGVSVIVGVPPDSQNLSMNPMLLLSGRTWKGAIFGGFKSKDSVPKLVADFMAKKFALDPLITHVLPFEKINEGFDLLRSGESIRTILTF”, the “soluble on expression in E. coli” value was “soluble”.

Regarding “STGVPATDLQQSIMKNVQPIELYFDNELVTDCSALGVYDNSYLVPLHLFEFDFDTIVLGGRHYKKAECEKVEFELEVNGDMVSSDACLLRVPSGPKVRNIVHLFTNEIELKKMTQVTGIMNSPHQARTVFFGSFLTVRKSILTSDGTVMPNVLSYAAQTSRGYCGAAIVAGSPARIIGIHSAGTGSVAFCSLVSKDALERTLPQKQGNVSRLDDDVRVSVPRRSKLVKSLAYPIFKPDYGPAPLSQFDKRLSDGVKLDEVVFAKHTGDKEISAQDQKWLLRAAHVYAQKVFSRIGFDNQALTEKEAICGIPGLDKMEQDTAPGLPYAQQNKRRKDICDFEEGRLKGAAKFQKDRFMAGDYSDLIYQSFLKDEIRPLEKVRAGKTRLIDVPPMPHVVVGRQLLGRFVAKFHEANGFDIGSAIGCDPDVDWTRFGLELERFRYVYACDYSRFDANHAADAMRVVLNYFFSEDHGFDPGVPAFIESLIDSVHAYEEKRYNIYGGLPSGCSCTSILNTILNNVYILAAMMKAYENFEPDDIQVICYGDDCLIASDFEIDFQQLVPVFSSFGQVITTADKTDFFKLTTLSEVTFLKRAFVPDGAFYKPVMDVKTLEAILSFVRPGTQAEKLLSVAQLAGHCEPEQYERLFEPFVGMYFVPTWRDLRLQWLMKLGC”, the “soluble on expression in E. coli” value is on record as “soluble”.

With “STSELDIFVGNTTLIDEDVYRLWLDGYSVTDAVALRVRSGILEQTGATAAVLQSDTMDHYRTFHMLERLLHAPPKLLHQLIFQIPPSRQALLIERYYAFDEAFVREVLGKKLSKGTKKDLDDISTKTGITLKSCRRQFDNFKRVFKVVEEMRGSLVDNIQQHFLLSDRLARDYAAIVFFANNRFETGKKKLQYLSFGDFAFCAELMIQNWTLGAVDSQMDDMDMDLDKEFLQDLKELKVLVADKDLLDLHKSLVCTALRGKLGVFSEMEANFKNLSRGLVNVAAKLTHNKDVRDLFVDLVEKFVEPCRSDHWPLSDVRFFLNQYSASVHSLDGFRHQALWDRYMGTLRGCLLRLYHD”, the “soluble on expression in E. coli” value is “soluble”.

Consider “STSSDPQSHNVFVYGSILEPAVAAVILDRTADTVPAVLHGYHRYKLKGLPYPCIVSSDSGKVNGKVITGVSDAELNNFDVIEGNDYERVTVEVVRMDNSEKVKVETYVWVNKDDPRMYGEWDFEEWRVVHAEKFVETFRKMLEWNKNPNGKSMEEAVGSLLSSGD”, for which the “soluble on expression in E. coli” value is “soluble”.

Regarding “SVDDSKYQCVKLNDGHFMPVLGFGTYAPAEVPKSKALEAVKLAIEAGFHHIDSAHVYNNEEQVGLAIRSKIADGSVKREDIFYTSKLWSNSHRPELVRPALERSLKNLQLDYVDLYLIHFPVSVKPGEEVIPKDENGKILFDTVDLCATWEAMEKCKDAGLAKSIGVSNFNHRLLEMILNKPGLKYKPVCNQVECHPYFNQRKLLDFCKSKDIVLVAYSALGSHREEPWVDPNSPVLLEDPVLCALAKKHKRTPALIALRYQLQRGVVVLAKSYNEQRIRQNVQVFEFQLTSEEMKAIDGLNRNVRYLTLDIFAGPPNYPFSDEY”, the “soluble on expression in E. coli” value is recorded as “soluble”.

For “SVDILVIPGHVRGDAAVISKVVGRPVYKGTVSPVYIPDIMKILRSGGKLDTEKPAEEVVKLSDYTSKIVFREAFRVGSLRIPLKPPPLLVVAEIPPTVAEDGIAGLAARMERDGASMVAVGTGFDDDPQVVHEKVRTALSALKDSPVIAETPTLDHAYSALKAGASGVIMPVETAVRLASEKPLPGDAFIIVSGEQPEELAKAVESLRTSGYSKVAVDPSLSPPLLGLLESIERFRRASRLLNVPLVFSAANVAEEVQADSHGVHALLALMALEAGASIYYVVEDSYKSYRSTAEAAEAARYASAARTLFSPRIPLTRLFVVKQPRRPPNPVEPPGERVNVDYIPPSMDRTGYAHIQVDHERGVIMLTFYPAGGEPVTFEGRKPTSLLRALTSRFPVSSEHAGYIGYELAKAEIALALGKTYVQDSPVLVPVWGGLDEE”, the “soluble on expression in E. coli” value is on record as “not soluble”.

Regarding “SVPIVSAWEKGMEAARALMDKYHVDNDLKANFKLLPDQVEALAAVCKTWLNEEHRGLQLTFTSNKTFVTMMGRFLQAYLQSFAEVTYKHHEPTGCALWLHRCAEIEGELKCLHGSIMINKEHVIEMDVTSENGQRALKEQSSKAKIVKNRWGRNVVQISNTDARCCVHDAACPANQFSGKSCGMFFSEGAKAQVAFKQIKAFMQALYPNAQTGHGHLLMPLRCECNSKPGHAPFLGRQLPKLTPFALSNAEDLDADLISDKSVLASVHHPALIVFQCCNPVYRNSRAQGGGPNCDFKISAPDLLNALVMVRSLWSENFTELPRMVVPEFKWSTKHQYRNVSLPVAHSDARQNPFDF”, the “soluble on expression in E. coli” value is “soluble”.

As for “TADVRTAENMGVRAYTVATAITFQGSGSYRGERWVDSADIIRQIESLSAEMEPAVAKIGLIRDSDTLSLVVDCLKKVFPSIRIVWDPVLRASADSSAGQADRFNLEDITALSRIDFITPNLPEARHLLGCEPDDETLLDFYRRSGVGLVLKGGHAGESVVTDRIVYDGRCEALRLLRGGTGKHGTGCAHSTAFAAALALEQEPFTAAGMAQLYVSRLRERASGLLAMHKDLPVDPVVR”, the “soluble on expression in E. coli” value is on record as “not soluble”.

Take “TAQIKGLTQAQRNANDGISLAQTAEGALGEISNNLQRIRELAVQASNGTNTQTDRDALQAEVTQLQSEIQRVAEQTSFNGQKLLDGSFNGVQFQIGANAGETIGVSKIMNAQTASLGGSLTRTTSTIDATDLTKYDTAMAAGDLTINGVDVGKIDAASTAQERAAQLTEAINRVSSQTNVGASYDKTTGQVTLTSNAAIAVAGAANDATVAGWANNATTGTATTTTGINSLTVSSFTNAQQTITQIDNALKDINTARADLGAVQNRFTSTVANLQSMTENLSSALEHHHHHH”: the “soluble on expression in E. coli” value is recorded as “soluble”.

Turning to “TAVSLEQLLIAREQRVALQQQCLHEYQQTLLSLTLTAVGPVKKNALLDYVFAKALANITACFNKLSVTATAQFIRPLQTGHEALFVLPIDAKILKRAMIELENSSPLARLWDIDVISQEGHYSRGEFGFAERTCLMCAESAKICARSRRHSIDDLLSEIHTRAQQ”, the “soluble on expression in E. coli” value is listed as “not soluble”.

Turning to “TEQATTTDELAFTRPYGEQEKQILTAEAVEFLTELVTHFTPQRNKLLAARIQQQQDIDNGTLPDFISETASIRDADWKIRGIPADLEDRRVEITGPVERKMVINALNANVKVFMADFEDSLAPDWNKVIDGQINLRDAVNGTISYTNEAGKIYQLKPNPAVLICRVRGLHLPEKHVTWRGEAIPGSLFDFALYFFHNYQALLAKGSGPYFYLPKTQSWQEAAWWSEVFSYAEDRFNLPRGTIKATLLIETLPAVFQMDEILHALRDHIVGLNCGRWDYIFSYIKTLKNYPDRVLPDRQAVTMDKPFLNAYSRLLIKTCHKRGAFAMGGMAAFIPSKDEEHNNQVLNKVKADKSLEANNGHDGTWIAHPGLADTAMAVFNDILGSRKNQLEVMREQDAPITADQLLAPCDGERTEEGMRANIRVAVQYIEAWISGNGCVPIYGLMEDAATAEISRTSIWQWIHHQKTLSNGKPVTKALFRQMLGEEMKVIASELGEERFSQGRFDDAARLMEQITTSDELIDFLTLPGYRLLA”, the “soluble on expression in E. coli” value was “soluble”.

In the case of “TFFTATDGNHGRGVAWTANKLGQKSVVLMPKGSSEFRLNKIKGEGADASITDLNYDDAVRLANDYAEADDHGVMVQDTAWDGYEEIPAWIMQGYGTMAQEAIEQLKEYGVDRPTHVFVQAGVGSLAGAVQGYVASIYDECPITVVVEADEADCYYKSAEAGDGKPRFVGGDMPTIMAGLACGEPNTIGFEVLKNHAAAFVSAPDWVSAKGMRTLGNPLNGDEKVISGESGAVTTGLLVAAMEREDLADLRKDLKLDENSRILLISTEGDT”, the “soluble on expression in E. coli” value is listed as “not soluble”.

Take “TGAITVGNKNNDKLTLWTTPAPSPNCRLNAEKDAKLTLVLTKCGSQILATVSVLAVKGSLAPISGTVQSAHLIIRFDENGVLLNNSFLDPEYWNFRNGDLTEGTAYTNAVGFMPNLSAYPKSHGKTAKSNIVSQVYLNGDKTKPVTLTITLNGTQETGDTTPSAYSMSFSWDWSGHNYINEIFATSSYTFSYIAQE”: the “soluble on expression in E. coli” value is “soluble”.

For the sequence “TGCSVTATRAEEWSDGFNVTYSVSGSSAWTVNLALNGSQTIQASWNANVTGSGSTRTVTPNGSGNTFGVTVMKNGSSTTPAATCAGS”, the “soluble on expression in E. coli” value is “soluble”.

Consider “TGKIDGILSIGVDVTERVKWRKQIEASGARLKSMIDQTPAPTLVLMGDNLVIEQVNTSMLKLLGHEENIVGIPLLTLMPELKGQYIWEQVEKVYREGIPFDQSEVRVSHKRTGMMEDYYYNIAYRPLKED”, for which the “soluble on expression in E. coli” value is given as “not soluble”.

With “TKNNQQTTPQTNHFNVADPVNKVPNWRKLGPETQRELRDLLYPLDDTGYFIYKYGAISRYLQSQKELDELVDYRTVLPSTQKHFKYDSFNQSVLESKLRKWLMKAIKQHPYFQHFEFDPVLKAQYNINIPAQKITVNAVWFYKKDNDLTTGKPIRYWDQFEIKLKQ”, the “soluble on expression in E. coli” value was “soluble”.

Regarding “TLAFCRFSAPGIYFLEKLFHPVASMLVRSTTFLNKHFAKKNHNISVDELSHALELTDKAEISEENNILEGIIRFGGETVKEVMTSRLDMVDLDVRTPFKEVMQCIIENAYSRIPIYSGSRDNIKGVLYIKDLLPHVNKGDNFRWQSLIRPAYFVPETKMIDDLLRDFQANKIHIAIVVDEFGGTSGLVTMEDIIEEIVGEIHDEYDD”, the “soluble on expression in E. coli” value is on record as “not soluble”.
